± gives the half width of the 95% confidence interval.
test: folding stability dG unfold from trypsin proteolysis; higher = more stable
Summary of the method: (§1)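 K50 was inferred by Bayesian fitting of sequencing counts obtained after protease digestion of designed mini-proteins. Unfolding free energy was derived by comparison with a sequence-predicted unfolded-state K50 and a shared folded-state K50, for each protease or both combined. The mini-proteins were under 80 residues, had no cysteine, were carried in a PA-tagged cDNA display construct, and were kept only if AlphaFold2 dimer inter-PAE exceeded 15.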

Row | Sequence | folding stability dG unfold [kcal/mol]
1 | MTIVIDTPVPPEEAEALLRELAEELGYSPELMEVEERVFSEGEDGRPYVTLTVRLPGLGVTITLRLPPDAAS [r1_21_JUSTAS] | 3.61 ± 0.11
2 | SAGGSAGGSAGGSSSVSVDTDPETGLITVTTYSSSGGVTVTLYEKPPDGSLTPVSTTAVSAGGSAGGSAGGS [r4_106_JUSTAS] | 1.08 ± 0.045
3 | SAGGSAGGSAGGGNSLSSVRVVPVTLRTSEPLEQDGDPRPREFTETTVVRITETVPPGLSAGGSAGGSAGGS [r10_118_JUSTAS] | 0.0729 ± 0.18
4 | SAGGSAGGSAGKWIMFDSPEDIEEKLKENGYRIKNIEPQKMGGGPHVYVPIEIKPPPEDKSAGGSAGGSAGG [r11_141_TrROS] | -0.506 ± 0.54
5 | SMKRVLILVPDPSVDKEELIEELKKKGFEDIEVVDSEEELKKLPENIDVVVIVRDGEVEVREVPPVEALKSA [r9_750_JUSTAS] | 0.698 ± 0.037
6 | SAMTTTTSVDPASGSSTVTTTEIIEKPAGKLPNGTKLPPVKVKKTTTTTYAPNGTKLSTTTTTTPVPLGSAG [r14_246_JUSTAS] | 1.01 ± 0.064
7 | SMEISFTDPAEAEALLAEVKAKLKAELPPNTVVPITVRDAAGNPTTHPITITPEPPEVVYFTETGGTVLLSA [r9_596_JUSTAS] | 1.94 ± 0.17
8 | SAGGSAGGMIEVESFPEIGYILVKAKSEKPEEIAKEVLEKFNVKEAVVFEDPEKPYVYILAKIDSAGGSAGG [r6_661_TrMRF] | 0.97 ± 0.088
9 | SAGGGMMWTVTFYPKETDTPITFPVPKEYITEIDEENNKIVIKKPPGETIEITDFNKIKSIEITPLPSAGGS [r8_111_JUSTAS] | 0.541 ± 0.04
10 | SAGGSAGGSMKITKTEEGVYLVEFTLPDGTPLVIPFPTDDPFLTEEQAVEIAKPIAAAFAAAGSAGGSAGGS [r12_642_TrMRF] | 0.84 ± 0.016
11 | SAGGSAGGSAGGSKIEIEEENGELKITIEVDGKKYEITIPKDMTLEEALKKALEKLPGLSAGGSAGGSAGGS [r4_191_TrROS_Hall] | 3.45 ± 0.69
12 | SAGGSAGGSAGEKVKLVITTTVTLPALDPEGGEFVGPVTFTETIVLDMNPEDAARLLAAASAGGSAGGSAGG [r17_283_TrMRF] | 1.4 ± 0.034
13 | SAGGSAGGSAPDIKILEPLEVDPDNGMITLKIELPGDGKVHEAIFFNPDGEPMMKFTIEIPKSAGGSAGGSA [r18_296_TrROS] | 0.219 ± 0.094
14 | SAGGSAPPNIEREEYEFYLRNPDGKELGPAKIEVIRDPGDPDRPILTIEWPNGEPMLFDADDIEPLSAGGSA [r15_954_TrROS] | 0.18 ± 0.052
15 | SAGGSAGGSAGMSTTPVAYKFTFTLPGGETLEREGTDVAALKEALKAEYGAVEITVTPVSSAGGSAGGSAGG [r17_508_JUSTAS] | 2.2 ± 0.042
16 | SAGPKITVKKLPDGSYLLLIEVPHEGGPSSRALIPYNPKTGKLELLEIETTHEEIKDKLIELAEELRKSSAG [r5_266_TrMRF] | 1.96 ± 0.08
17 | SAGGSAGGSAAVILPEGTLYFTLPDGSRAAATVDPATGTVHIRLYSPDGVPLAEADIPIDPSAGGSAGGSAG [r3_447_TrMRF] | 0.947 ± 0.024
18 | SAGMEKVKLTFKTEDGSEVEIEIVKNEDGSYFVKVKVDKENQEIYVFNADGELIEKIKVKSLEDALKALSAG [r5_757_TrROS_Hall] | 1.69 ± 0.063
19 | SAGGWIWIPPDDPEDAKEWARELVLMFANHMKEQGQEDMTVDVDIHVWDPKDGNWYRIPVEFRVKPDSAGGS [r8_163_TrROS] | 1.97 ± 0.044
20 | SAGGSAGGGTVLAEEEEPETGLVRRLVRLPDGTLVESVSLVDPETGEVLSEEVLRETPLPPPGLSAGGSAGG [r6_928_JUSTAS] | 0.898 ± 0.08
21 | SAGGSAIIVIEIEMGGKPVPIMIPIPPNMPPEDAREEIKELAKQEVRDPDGKPVRVKIEVIPPPPESAGGSA [r15_246_TrROS] | 0.163 ± 0.059

Row | Sequence | folding stability dG unfold [kcal/mol]
22 | SAGGSAGGSAGGKKKFGFLILVKNKDDEKLYLVEVPEELSLEEFLPDQEIDEEVIKKAIGSAGGSAGGSAGG [r17_412_TrMRF] | 0.823 ± 0.082
23 | SAGMVKVEVEYRPLPNGTVEVTVKLTITEPVPDEDGNLYYKTKTLTITVPTTSLSEAPKHVEEFIKKLSAGG [r19_218_TrMRF] | 2.52 ± 0.12
24 | SAGGSAVKIDPKTKVIEVKNPETGETYRISLPDVPPEDGVEVEVGDDKIIIKTPKGTKEIPIDKAKSAGGSA [r15_864_TrMRF] | -0.000856 ± 0.16
25 | SENKPVTVLVNVTKNEDGTYTARVFVFDENGKLLAEEEVEAPLEKAVELVEALKKAYPNAKVVAVFTEGLSA [r9_374_TrMRF] | 3.63 ± 0.23
26 | SAGGSMVVTETLVETLTETLTFPDGTPVTVTVPVTVTVEVYLPEPPAPPPLPFSRLAEELGDPALVSAGGSA [r2_340_JUSTAS] | -0.838 ± 0.26
27 | SAGGSAGGANTVTIELPNGFRITLNDDGTITISYYDPETGELVKTVTIKLPPPPPVVVVHEDDKSAGGSAGG [r6_572_TrROS_Hall] | 3.1 ± 0.23
28 | SAGGSAGGSAGGSPVIIPDKGYLVVELEEEGLLVVYPLYPDGEIGPAFVRPVHPDVPVLSAGGSAGGSAGGS [r4_409_TrMRF] | 2.61 ± 0.062
29 | SAGGSAGGSASVKELAEKLAEPGQTVMVIKRDGKEYLIVMSDEEAEALRKLFPDMEIERVRLSAGGSAGGSA [r18_198_TrROS_Hall] | 1.59 ± 0.02
30 | SAGGMMKYVVRIKIYNENGEEVKEIEIEIEMSEEEVEELARKLAEKLAEELGVEVKIVEVEIEKLEPSAGGS [r16_140_TrROS_Hall] | 4.4 ± 0.37
31 | SAGGSAGGSKGKKITIILPPGMPPDAIKNWLAPLGINITIEPIPVVKPKRDPDDGEETYEPYGSAGGSAGGS [r12_80_TrROS] | 0.73 ± 0.1
32 | SAGMIKVEVYTLDPNGVLTKETYEIPLLPGTPIEEVVNELTEPGTGAVEIVEYNPPPPEIKIKIVRFPASAG [r5_227_TrMRF] | 1.48 ± 0.43
33 | SAGGSAGGSRLDATRALLDKLPPGSVTVTVYVNGKPVTFRFGSREEIEEAIEANPDVEVEIEPASAGGSAGG [r6_421_TrMRF] | 0.93 ± 0.13
34 | SAGEPDKPFTLTLKLLLPQSEDGTPLTPEEAEELAKEISTELGVEVEEIKITSNPEGNFVEIEVKLRGSAGG [r19_322_TrMRF] | 2.02 ± 0.031
35 | SAGKIEILDEKPYKDSITVVAKLPGTDEIIVLTYNPKTKTVEIKIFPPKGVKTIPVKAKDIEKALKEIASAG [r5_769_TrMRF] | 0.728 ± 0.072
36 | SAGGSAGGSAGGDDNDPGKIKIEVEVETYPIPNPNGEPFYITTHTIKIPNLDIEFMMIMPSAGGSAGGSAGG [r7_945_TrROS] | 2.01 ± 0.1
37 | SAGGSAGGSALIIVAPDGFIISIEWPNGKPRTIMMPPDEIDEILEDDGIKDIEIQKLPPGASAGGSAGGSAG [r3_141_TrROS] | 0.388 ± 0.05
38 | SAMIEVINATDPVTGKPYTITREGEGITVTDPETGKTYAATKDGDTITLDAGDTPLTLTPVSTVPESLLSAG [r14_208_JUSTAS] | 0.839 ± 0.041
39 | SAGGMKTLRLVVTVKVPKETGKPTVAEKLAEELAKLPGVEVVKVEVKRLENGTVVVTIEIKVPKELKPSAGG [r13_428_TrROS_Hall] | 3.13 ± 0.23
40 | SAGGSMTAEELEGLPAEEIAELLPSDYTVSFIPETGLLVVEAPTRVVLATYNPAEGTVTLLEVRDASAGGSA [r2_470_TrMRF] | 0.849 ± 0.086
41 | SAGGKNITIDDITFQPQRDNGKPRYYMEVKVELPNGNPIPITMPMDRMQNNGMSPKTFAKWIAKWLLSAGGS [r16_625_TrROS] | 1.04 ± 0.13
42 | MDVKIEPYRDPETGELYYKAVVKFKDGKEKLIEVKVPPNGKPIAKIYDPNGKLLAEKEFDSIEEALKEALAS [r1_478_TrMRF] | 3.3 ± 0.35

test: folding stability dG unfold from chymotrypsin proteolysis; higher = more stable
Summary of the method: as §1

Row | Sequence | folding stability dG unfold [kcal/mol]
43 | MTIVIDTPVPPEEAEALLRELAEELGYSPELMEVEERVFSEGEDGRPYVTLTVRLPGLGVTITLRLPPDAAS [r1_21_JUSTAS] | 3.681 ± 0.02
44 | SAGGSAGGSAGGSSSVSVDTDPETGLITVTTYSSSGGVTVTLYEKPPDGSLTPVSTTAVSAGGSAGGSAGGS [r4_106_JUSTAS] | 0.844 ± 0.07
45 | SAGGSAGGSAGGGNSLSSVRVVPVTLRTSEPLEQDGDPRPREFTETTVVRITETVPPGLSAGGSAGGSAGGS [r10_118_JUSTAS] | 0.57 ± 0.082
46 | SAGGSAGGSAGKWIMFDSPEDIEEKLKENGYRIKNIEPQKMGGGPHVYVPIEIKPPPEDKSAGGSAGGSAGG [r11_141_TrROS] | 0.43 ± 0.39
47 | SMKRVLILVPDPSVDKEELIEELKKKGFEDIEVVDSEEELKKLPENIDVVVIVRDGEVEVREVPPVEALKSA [r9_750_JUSTAS] | 0.585 ± 0.1
48 | SAMTTTTSVDPASGSSTVTTTEIIEKPAGKLPNGTKLPPVKVKKTTTTTYAPNGTKLSTTTTTTPVPLGSAG [r14_246_JUSTAS] | 0.67 ± 0.11
49 | SMEISFTDPAEAEALLAEVKAKLKAELPPNTVVPITVRDAAGNPTTHPITITPEPPEVVYFTETGGTVLLSA [r9_596_JUSTAS] | 1.57 ± 0.051
50 | SAGGSAGGMIEVESFPEIGYILVKAKSEKPEEIAKEVLEKFNVKEAVVFEDPEKPYVYILAKIDSAGGSAGG [r6_661_TrMRF] | 1.26 ± 0.21
51 | SAGGGMMWTVTFYPKETDTPITFPVPKEYITEIDEENNKIVIKKPPGETIEITDFNKIKSIEITPLPSAGGS [r8_111_JUSTAS] | 0.528 ± 0.18
52 | SAGGSAGGSMKITKTEEGVYLVEFTLPDGTPLVIPFPTDDPFLTEEQAVEIAKPIAAAFAAAGSAGGSAGGS [r12_642_TrMRF] | 1.35 ± 0.038
53 | SAGGSAGGSAGGSKIEIEEENGELKITIEVDGKKYEITIPKDMTLEEALKKALEKLPGLSAGGSAGGSAGGS [r4_191_TrROS_Hall] | 2.5 ± 0.087
54 | SAGGSAGGSAGEKVKLVITTTVTLPALDPEGGEFVGPVTFTETIVLDMNPEDAARLLAAASAGGSAGGSAGG [r17_283_TrMRF] | 2.675 ± 0.013
55 | SAGGSAGGSAPDIKILEPLEVDPDNGMITLKIELPGDGKVHEAIFFNPDGEPMMKFTIEIPKSAGGSAGGSA [r18_296_TrROS] | 0.358 ± 0.31
56 | SAGGSAPPNIEREEYEFYLRNPDGKELGPAKIEVIRDPGDPDRPILTIEWPNGEPMLFDADDIEPLSAGGSA [r15_954_TrROS] | 0.384 ± 0.17
57 | SAGGSAGGSAGMSTTPVAYKFTFTLPGGETLEREGTDVAALKEALKAEYGAVEITVTPVSSAGGSAGGSAGG [r17_508_JUSTAS] | 2.07 ± 0.12
58 | SAGPKITVKKLPDGSYLLLIEVPHEGGPSSRALIPYNPKTGKLELLEIETTHEEIKDKLIELAEELRKSSAG [r5_266_TrMRF] | 2.8 ± 0.071
59 | SAGGSAGGSAAVILPEGTLYFTLPDGSRAAATVDPATGTVHIRLYSPDGVPLAEADIPIDPSAGGSAGGSAG [r3_447_TrMRF] | 2.26 ± 0.037
60 | SAGMEKVKLTFKTEDGSEVEIEIVKNEDGSYFVKVKVDKENQEIYVFNADGELIEKIKVKSLEDALKALSAG [r5_757_TrROS_Hall] | 3.19 ± 0.052
61 | SAGGWIWIPPDDPEDAKEWARELVLMFANHMKEQGQEDMTVDVDIHVWDPKDGNWYRIPVEFRVKPDSAGGS [r8_163_TrROS] | 2.31 ± 0.12
62 | SAGGSAGGGTVLAEEEEPETGLVRRLVRLPDGTLVESVSLVDPETGEVLSEEVLRETPLPPPGLSAGGSAGG [r6_928_JUSTAS] | 1.41 ± 0.054
63 | SAGGSAIIVIEIEMGGKPVPIMIPIPPNMPPEDAREEIKELAKQEVRDPDGKPVRVKIEVIPPPPESAGGSA [r15_246_TrROS] | 0.945 ± 0.031
